According to patent publication US20120058906A1 (published 2012):
Substitutions are numbered along the chain they refer to. Values belong to the binder of their own block, whether it stands above or below them.

Columns and labels:
[1] = molecular target: T1, rHuman Erythropoietin R/Fc Chimera, CF (R&D Systems Cat#963-ER) (human, UniProt P19235 25-250); test: MSD ECL multi-spot plate, antigen immobilized; Fab 40 nM; blank spot 502
T1 construct: Purchased Fc chimera; also called EPO R/Fc; Epo R; not shown: Fc portion of the purchased chimera
T1 sequence: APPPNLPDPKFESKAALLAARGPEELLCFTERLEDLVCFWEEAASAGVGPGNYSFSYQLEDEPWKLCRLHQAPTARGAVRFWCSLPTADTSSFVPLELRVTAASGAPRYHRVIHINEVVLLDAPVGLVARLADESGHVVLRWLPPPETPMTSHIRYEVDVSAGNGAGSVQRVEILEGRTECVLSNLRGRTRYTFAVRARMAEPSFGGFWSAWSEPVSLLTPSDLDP

[2] = molecular target: T2, rHuman Erythropoietin R/Fc Chimera, CF (R&D Systems Cat#963-ER) (human, UniProt P19235 25-250); test: ECL (MSD Multi-Spot) binding assay, antigen spotted on plate; Fab 51 nM; blank spot 335
T2 construct: Bought Fc chimera; also called EPO R/Fc; Epo R; Fc part of the bought chimera not given
T2 sequence: T1 sequence

[3] = molecular target: T3, rHuman CD44/Fc Chimera, CF (R&D Systems Cat#3660-CD) (human, UniProt P16070 21-220); test: ECL (MSD Multi-Spot) binding, antigen spotted on plate; Fab 50 nM
T3 construct: Bought Fc chimera; Fc part of the bought chimera not given

[4] = molecular target: T4, rHuman IGF-1 sR, CF (R&D Systems Cat#391-GR) (human, UniProt P08069 31-932); test: as above
T4 construct: Bought soluble receptor; also called insulin-like growth factor-1 soluble receptor; IGF-R1

[5] = molecular target: T5, rHuman P-Cadherin/Fc Chimera, CF (R&D Systems Cat#861-PC) (human, UniProt P22223 108-654); test: as above
T5 construct: Bought Fc chimera; Fc part of the bought chimera not given

[6] = molecular target: T6, rHuman Erythropoietin R/Fc Chimera, CF (R&D Systems Cat#963-ER) (human, UniProt P19235 25-250); test: as above
T6 construct: Bought Fc chimera; also called EPO R/Fc; erythropoietin receptor; Fc part of the bought chimera not given
T6 sequence: T1 sequence

[7] = molecular target: T7, Recombinant Human DLL4 (R&D Systems Cat#1506-D4/CF) (human, UniProt Q9NR61 27-524); test: as above
T7 construct: Bought recombinant protein; also called delta-like protein 4

[8] = molecular target: T8, rHuman ErbB2/Fc Chimera, CF (R&D Systems Cat#1129-ER) (human, UniProt P04626 23-652); test: as above
T8 construct: Bought Fc chimera; also called human epidermal growth factor 2 receptor; HER2/neu; Fc part of the bought chimera not given

[9] = molecular target: T9, rHuman EGF R/Fc Chimera, CF (R&D Systems Cat#344-ER) (human, UniProt P00533 25-645); test: as above
T9 construct: Bought Fc chimera; also called epidermal growth factor receptor; Fc part of the bought chimera not given

[10] = molecular target: T10, rHuman HGF R/c-MET/Fc Chimera, CF (R&D Systems Cat#358-MT/CF) (human, UniProt P08581 25-932); test: as above
T10 construct: Bought Fc chimera; also called HGF R/Fc; hepatocyte growth factor receptor; Fc part of the bought chimera not given

[11] = molecular target: T11, rHuman Notch-1/Fc Chimera, CF (R&D Systems Cat#3647-TK) (human, UniProt P46531 19-526); test: as above
T11 construct: Bought Fc chimera; Fc part of the bought chimera not given

[12] = molecular target: T3, rHuman CD44/Fc Chimera, CF (R&D Systems …); test: ECL (MSD Multi-Spot) binding, antigen spotted on plate; Fab 0.5 nM
[13] = molecular target: T4, rHuman IGF-1 sR, CF (R&D Systems …); test: as above
[14] = molecular target: T5, rHuman P-Cadherin/Fc Chimera, CF (R&D …); test: as above
[15] = molecular target: T6, rHuman Erythropoietin R/Fc Chimera, CF …; test: as above
[16] = molecular target: T7, Recombinant Human DLL4 (R&D Systems …); test: as above
[17] = molecular target: T8, rHuman ErbB2/Fc Chimera, CF (R&D …); test: as above
[18] = molecular target: T9, rHuman EGF R/Fc Chimera, CF (R&D …); test: as above
[19] = molecular target: T10, rHuman HGF R/c-MET/Fc Chimera, CF (R&D …); test: as above
[20] = molecular target: T11, rHuman Notch-1/Fc Chimera, CF (R&D …); test: as above
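Note: blank spot per well as comparator with Hit at signal to blank ratio of 4 or more.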

ECL signal [1]: 994 ECL signal
B1: Fab VH5-51_IGHD5-18*01>3_IGHJ4*01_G100R & V3-4_IGLJ1*01 (Fab, V domains shown)
VH: EVQLVQSGAEVKKPGESLKISCKGSGYSFTSYWIGWVRQMPGKGLEWMGIIYPGDSDTRYSPSFQGQVTISADKSISTAYLQWSSLKASDTAMYYCARRRYSYGYDYFDYWGQGTLVTVSS
VL: QTVVTQEPSFSVSPGGTVTLTCGLSSGSVSTSYYPSWYQQTPGQAPRTLIYSTNTRSSGVPDRFSGSILGNKAALTITGAQADDESDYYCVLYMGSGISYVFGTGTKVTVL
notes: It was expressed as a Fab: CH1 with tags from Plasmid A and lambda CL from Plasmid E; also called Fab No. 23

ECL signal [2]: 750
B2: Fab VH5-51_IGHD5-18*01>3_IGHJ4*01 & V3-4_IGLJ1*01 (Fab, V domains shown)
VH: B1 VH with R100G
VL: B1 VL
notes: Tested as a Fab made in E. coli; also called IGHV5-51*03

ECL signal [3]: 433
ECL signal [4]: 460
ECL signal [5]: 626
ECL signal [6]: 631
ECL signal [7]: 207000
ECL signal [8]: 589
ECL signal [9]: 523
ECL signal [10]: 325
ECL signal [11]: 475
ECL signal [12]: 279
ECL signal [13]: 164
ECL signal [14]: 215
ECL signal [15]: 359
ECL signal [16]: 2970
ECL signal [17]: 331
ECL signal [18]: 273
ECL signal [19]: 319
ECL signal [20]: 263
B3: Fab VH1-46_IGHD6-6*01_IGHJ1*01_S102A_S103P_S104F_H111Y & L6_IGKJ1*01 (Fab, V domains shown)
VH: QVQLVQSGAEVKKPGASVKVSCKASGYTFTSYYMHWVRQAPGQGLEWMGIINPSGGSTSYAQKFQGRVTMTRDTSTSTVYMELSSLRSEDTAVYYCAREEYAPFSAEYFQYWGQGTLVTVSS
VL: not shown
notes: Fab made in E. coli; The heavy chain also carries the CH1 with Flag and His tags of Plasmid A, and the light chain the kappa constant region of Plasmid C
